This passage reports Kd results from US20230140797A1 (published 2023).

In general, Kd refers to the free concentration of one partner at which half of the binding sites on the other are occupied at equilibrium, for simple one-to-one binding.

B1: IL6R-BP493/IL6R-L (antibody, human IgG1, kappa)
heavy: QVQLQESGPGLVKPSETLSLTCAVSGHSISHDHAWSWVRQPPGEGLEWIGFISYSGITNYNPSLQGRVTISRDNSKNTLYLQMNSLRAEDTAVYYCARSLARTTAMDYWGEGTLVTVSSASTKGPSVFPLAPSSKSTSGGTAALGCLVKDYFPEPVTVSWNSGALTSGVHTFPAVLQSSGLYSLSSVVTVPSSSLGTQTYICNVNHKPSNTKVDKKVEPKSCDKTHTCPPCPAPELLGGDSVFLFPPKPKDTLMISRTPEVTCVVIDVAEEDGEVKFNWYVDGVEVHNAKTKPREEQDNSTYRVVSVLTVLHQDWLNGKEYKCKVSNKALPAPIEKTISKAKGQPREPQVYTLPPSRDELTKNQVSLTCLVKGFYPSDIAVEWESNGQPENNYKTTPPVLDSDGSFFLYSKLTVDKSRWQQGNVFSCSVMHEALHNHYTQESLSLSP
light: not shown
B2: IL6R-BP440/IL6R-L (antibody, human IgG1, kappa)
heavy: QVQLQESGPGLVKPSETLSLTCAVSGHSISHDHAWSWVRQPPGEGLEWIGFISYSGITNYNPSLQGRVTISRDNSKNTLYLQMNSLRAEDTAVYYCARSLARTTAMDYWGEGTLVTVSSASTKGPSVFPLAPSSKSTSGGTAALGCLVKDYFPEPVTVSWNSGALTSGVHTFPAVLQSSGLYSLSSVVTVPSSSLGTQTYICNVNHKPSNTKVDKKVEPKSCDKTHTCPPCPAPDLLGDDSVFLFPPKPKDTLMISRTPEVTCVVIDVSEEDGEVKFNWYVDGVEVHNAKTKPREEQYNSTYRVVSVLTVLHQDWLNGKEYKCKVSNKALPRPIEKTISKAKGQPREPQVYTLPPSRDELTKNQVSLTCLVKGFYPSDIAVEWESNGQPENNYKTTPPVLDSDGSFFLYSKLTVDKSRWQQGNVFSCSVMHEALHNHYTQESLSLSP
light: not shown
B3: IL6R-BP441/IL6R-L (antibody, human IgG1, kappa)
heavy: QVQLQESGPGLVKPSETLSLTCAVSGHSISHDHAWSWVRQPPGEGLEWIGFISYSGITNYNPSLQGRVTISRDNSKNTLYLQMNSLRAEDTAVYYCARSLARTTAMDYWGEGTLVTVSSASTKGPSVFPLAPSSKSTSGGTAALGCLVKDYFPEPVTVSWNSGALTSGVHTFPAVLQSSGLYSLSSVVTVPSSSLGTQTYICNVNHKPSNTKVDKKVEPKSCDKTHTCPPCPAPDLLGDDSVFLFPPKPKDTLMISRTPEVTCVVVDLSEEDGEVKFNWYVDGVEVHNAKTKPREEQYNSTYRVVSVLTVLHQDWLNGKEYKCKVSNKALPRPIEKTISKAKGQPREPQVYTLPPSRDELTKNQVSLTCLVKGFYPSDIAVEWESNGQPENNYKTTPPVLDSDGSFFLYSKLTVDKSRWQQGNVFSCSVMHEALHNHYTQESLSLSP
light: not shown
B4: IL6R-BP481/IL6R-L (antibody, human IgG1, kappa)
heavy: QVQLQESGPGLVKPSETLSLTCAVSGHSISHDHAWSWVRQPPGEGLEWIGFISYSGITNYNPSLQGRVTISRDNSKNTLYLQMNSLRAEDTAVYYCARSLARTTAMDYWGEGTLVTVSSASTKGPSVFPLAPSSKSTSGGTAALGCLVKDYFPEPVTVSWNSGALTSGVHTFPAVLQSSGLYSLSSVVTVPSSSLGTQTYICNVNHKPSNTKVDKKVEPKSCDKTHTCPPCPAPDLLGDDSVFLFPPKPKDTLMISRTPEVTCVVIDVAEEDGEVKFNWYVDGVEVHNAKTKPREEQYNSTYRVVSVLTVLHQDWLNGKEYKCKVSNKALPAPIEKTISKAKGQPREPQVYTLPPSRDELTKNQVSLTCLVKGFYPSDIAVEWESNGQPENNYKTTPPVLDSDGSFFLYSKLTVDKSRWQQGNVFSCSVMHEALHNHYTQESLSLSP
light: not shown
B5: IL6R-BP479/IL6R-L (antibody, human IgG1, kappa)
heavy: QVQLQESGPGLVKPSETLSLTCAVSGHSISHDHAWSWVRQPPGEGLEWIGFISYSGITNYNPSLQGRVTISRDNSKNTLYLQMNSLRAEDTAVYYCARSLARTTAMDYWGEGTLVTVSSASTKGPSVFPLAPSSKSTSGGTAALGCLVKDYFPEPVTVSWNSGALTSGVHTFPAVLQSSGLYSLSSVVTVPSSSLGTQTYICNVNHKPSNTKVDKKVEPKSCDKTHTCPPCPAPDLLGDDSVFLFPPKPKDTLMISRTPEVTCVVIDLAEEDGEVKFNWYVDGVEVHNAKTKPREEQYNSTYRVVSVLTVLHQDWLNGKEYKCKVSNKALPAPIEKTISKAKGQPREPQVYTLPPSRDELTKNQVSLTCLVKGFYPSDIAVEWESNGQPENNYKTTPPVLDSDGSFFLYSKLTVDKSRWQQGNVFSCSVMHEALHNHYTQESLSLSP
light: not shown
B6: IL6R-BP436/IL6R-L (antibody, human IgG1, kappa)
heavy: QVQLQESGPGLVKPSETLSLTCAVSGHSISHDHAWSWVRQPPGEGLEWIGFISYSGITNYNPSLQGRVTISRDNSKNTLYLQMNSLRAEDTAVYYCARSLARTTAMDYWGEGTLVTVSSASTKGPSVFPLAPSSKSTSGGTAALGCLVKDYFPEPVTVSWNSGALTSGVHTFPAVLQSSGLYSLSSVVTVPSSSLGTQTYICNVNHKPSNTKVDKKVEPKSCDKTHTCPPCPAPDLLGDDSVFLFPPKPKDTLMISRTPEVTCVVVDVAEEDGEVKFNWYVDGVEVHNAKTKPREEQDNSTYRVVSVLTVLHQDWLNGKEYKCKVSNKALPRPTEKTISKAKGQPREPQVYTLPPSRDELTKNQVSLTCLVKGFYPSDIAVEWESNGQPENNYKTTPPVLDSDGSFFLYSKLTVDKSRWQQGNVFSCSVMHEALHNHYTQESLSLSP
light: not shown
B7: IL6R-BP431/IL6R-L (antibody, human IgG1, kappa)
heavy: QVQLQESGPGLVKPSETLSLTCAVSGHSISHDHAWSWVRQPPGEGLEWIGFISYSGITNYNPSLQGRVTISRDNSKNTLYLQMNSLRAEDTAVYYCARSLARTTAMDYWGEGTLVTVSSASTKGPSVFPLAPSSKSTSGGTAALGCLVKDYFPEPVTVSWNSGALTSGVHTFPAVLQSSGLYSLSSVVTVPSSSLGTQTYICNVNHKPSNTKVDKKVEPKSCDKTHTCPPCPAPDLLGDDSVFLFPPKPKDTLMISRTPEVTCVVVDVGEDDGEVKFNWYVDGVEVHNAKTKPREEQYNSTYRVVSVLTVLHQDWLNGKEYKCKVSNKALPRPIEKTISKAKGQPREPQVYTLPPSRDELTKNQVSLTCLVKGFYPSDIAVEWESNGQPENNYKTTPPVLDSDGSFFLYSKLTVDKSRWQQGNVFSCSVMHEALHNHYTQESLSLSP
light: not shown
B8: IL6R-BP425/IL6R-L (antibody, human IgG1, kappa)
heavy: QVQLQESGPGLVKPSETLSLTCAVSGHSISHDHAWSWVRQPPGEGLEWIGFISYSGITNYNPSLQGRVTISRDNSKNTLYLQMNSLRAEDTAVYYCARSLARTTAMDYWGEGTLVTVSSASTKGPSVFPLAPSSKSTSGGTAALGCLVKDYFPEPVTVSWNSGALTSGVHTFPAVLQSSGLYSLSSVVTVPSSSLGTQTYICNVNHKPSNTKVDKKVEPKSCDKTHTCPPCPAPDLLGDDSVFLFPPKPKDTLMISRTPEVTCVVVDLAEEDGEVKFNWYVDGVEVHNAKTKPREEQYNSTYRVVSVLTVLHQDWLNGKEYKCKVSNKALPRPIEKTISKAKGQPREPQVYTLPPSRDELTKNQVSLTCLVKGFYPSDIAVEWESNGQPENNYKTTPPVLDSDGSFFLYSKLTVDKSRWQQGNVFSCSVMHEALHNHYTQESLSLSP
light: not shown
B9: IL6R-BP087/IL6R-L (antibody, human IgG1, kappa)
heavy: QVQLQESGPGLVKPSETLSLTCAVSGHSISHDHAWSWVRQPPGEGLEWIGFISYSGITNYNPSLQGRVTISRDNSKNTLYLQMNSLRAEDTAVYYCARSLARTTAMDYWGEGTLVTVSSASTKGPSVFPLAPSSKSTSGGTAALGCLVKDYFPEPVTVSWNSGALTSGVHTFPAVLQSSGLYSLSSVVTVPSSSLGTQTYICNVNHKPSNTKVDKKVEPKSCDKTHTCPPCPAPEYLGGDSVFLFPPKPKDTLMISRTPEVTCVVVDVSHEDPEVKFNWYVDGVEVHNAKTKPREEQYNSTYRVVSVLTVLHQDWLNGKEYKCKVSNKALPKPIEKTISKAKGQPREPQVYTLPPSRDELTKNQVSLTCLVKGFYPSDIAVEWESNGQPENNYKTTPPVLDSDGSFFLYSKLTVDKSRWQQGNVFSCSVMHEALHNHYTQESLSLSP
light: not shown
B10: IL6R-BP143/IL6R-L (antibody, human IgG1, kappa)
heavy: QVQLQESGPGLVKPSETLSLTCAVSGHSISHDHAWSWVRQPPGEGLEWIGFISYSGITNYNPSLQGRVTISRDNSKNTLYLQMNSLRAEDTAVYYCARSLARTTAMDYWGEGTLVTVSSASTKGPSVFPLAPSSKSTSGGTAALGCLVKDYFPEPVTVSWNSGALTSGVHTFPAVLQSSGLYSLSSVVTVPSSSLGTQTYICNVNHKPSNTKVDKKVEPKSCDKTHTCPPCPAPEYLGGDSVFLFPPKPKDTLMISRTPEVTCVVVDVSHEDPEVKFNWYVDGVEVHNAKTKPREEQYNSTYRVVSVLTVLHQDWLNGKEYKCKVSNAALPAPIEKTISKAKGQPREPQVYTLPPSRDELTKNQVSLTCLVKGFYPSDIAVEWESNGQPENNYKTTPPVLDSDGSFFLYSKLTVDKSRWQQGNVFSCSVMHEALHNHYTQESLSLSP
light: not shown
B11: IL6R-BP150/IL6R-L (antibody, human IgG1, kappa)
heavy: QVQLQESGPGLVKPSETLSLTCAVSGHSISHDHAWSWVRQPPGEGLEWIGFISYSGITNYNPSLQGRVTISRDNSKNTLYLQMNSLRAEDTAVYYCARSLARTTAMDYWGEGTLVTVSSASTKGPSVFPLAPSSKSTSGGTAALGCLVKDYFPEPVTVSWNSGALTSGVHTFPAVLQSSGLYSLSSVVTVPSSSLGTQTYICNVNHKPSNTKVDKKVEPKSCDKTHTCPPCPAPEYLGDDSVFLFPPKPKDTLMISRTPEVTCVVVDVSHEDPEVKFNWYVDGVEVHNAKTKPREEQYNSTYRVVSVLTVLHQDWLNGKEYKCKVSNAALPRPIEKTISKAKGQPREPQVYTLPPSRDELTKNQVSLTCLVKGFYPSDIAVEWESNGQPENNYKTTPPVLDSDGSFFLYSKLTVDKSRWQQGNVFSCSVMHEALHNHYTQESLSLSP
light: not shown

The first test deals with T1, human FcγRIIa type H (131His) extracellular domain with C-terminal His tag (human, UniProt P12318 34-217).
T1 sequence (looked up): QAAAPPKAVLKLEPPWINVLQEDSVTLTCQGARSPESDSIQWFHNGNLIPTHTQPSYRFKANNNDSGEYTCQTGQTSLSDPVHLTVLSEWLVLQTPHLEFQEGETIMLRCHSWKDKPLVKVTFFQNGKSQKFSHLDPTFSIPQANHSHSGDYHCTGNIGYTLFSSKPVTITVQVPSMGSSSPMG
Nature of the test: SPR. Background: Surface plasmon resonance follows binding to a sensor surface in real time, without labels.
B1: binding was put at a Kd of 13000 nM.

B2 had a Kd of 1500 nM. Against the preceding molecule, the Kd is about 8.7-fold lower.

As to B3, the Kd came to 3 nM. Against the preceding molecule, the Kd is about 500-fold lower.

For the molecule B4, the Kd worked out at 8300 nM.

A further test addresses T2, human FcγRIIb extracellular domain with C-terminal His tag (human, UniProt P31994 43-217).
T2 sequence (looked up): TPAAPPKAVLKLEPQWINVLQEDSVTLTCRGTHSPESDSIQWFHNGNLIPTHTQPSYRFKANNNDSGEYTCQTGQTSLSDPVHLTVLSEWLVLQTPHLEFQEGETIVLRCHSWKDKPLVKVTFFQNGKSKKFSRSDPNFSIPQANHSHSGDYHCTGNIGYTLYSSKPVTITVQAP
Nature of the test: SPR.
In turn, B5 gave a Kd of 5600 nM.

As to B6, binding was characterised by a dissociation constant (Kd) of 51 nM.

For the molecule B7, the Kd was 1.2 nM. Against the preceding molecule, the Kd is about 42-fold lower.

As to B8, binding was put at a Kd of 0.1 nM.

The target in a further test is T3, human FcγRIIa type R (131Arg) extracellular domain with C-terminal His tag (human, UniProt P12318 34-217).
T3 sequence (looked up): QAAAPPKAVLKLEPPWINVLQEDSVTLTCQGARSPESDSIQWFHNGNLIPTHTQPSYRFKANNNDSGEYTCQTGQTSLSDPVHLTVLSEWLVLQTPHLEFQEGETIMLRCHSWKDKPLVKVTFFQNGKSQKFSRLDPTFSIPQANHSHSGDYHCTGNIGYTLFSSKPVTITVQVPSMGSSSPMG
Nature of the test: SPR.
Molecule B1 yielded a Kd of 11 nM.

In a further test the target is human FcγRIa extracellular domain with C-terminal His tag (human, UniProt P12314 16-292). Nature of the test: SPR.
human FcγRIa extracellular domain with C-terminal His tag, sequence (P12314 16-292): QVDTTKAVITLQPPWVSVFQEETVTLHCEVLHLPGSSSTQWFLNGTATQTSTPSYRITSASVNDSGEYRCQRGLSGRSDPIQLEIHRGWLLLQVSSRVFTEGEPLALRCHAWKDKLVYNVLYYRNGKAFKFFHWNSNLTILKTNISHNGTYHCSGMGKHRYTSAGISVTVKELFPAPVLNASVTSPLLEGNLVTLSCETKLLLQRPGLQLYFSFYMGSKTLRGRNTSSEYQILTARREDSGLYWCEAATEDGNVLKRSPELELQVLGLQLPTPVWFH
With B9, binding was characterised by a dissociation constant (Kd) of 3800 nM.

B10: binding was characterised by a dissociation constant (Kd) of 18 nM.

As for B11, the Kd is 300 nM. This Kd is about 17-fold higher than that of the molecule before.
